Substitutions are numbered along the chain they refer to. Names may count otherwise. “And” between values parts separate entries of the source, which are not always exact repeats. Equal entries are not always repeated.
B1: huNRG1(S177-F229)(NRGE1C) 6xHis (ligand)
chain: SHLVKCGEKHKSFCVNGGECFMIEGPSNPSRYLCKCPNEFTGDRCQEDFMASFGGGGEGGGGAGGGGHHHHHH
B2: huNRG1(S177-F229)(NRGE1C) (E47S_D48A_F49L_M50T) 6xHis (ligand)
chain: B1 chain with E47S, D48A, F49L, M50T
B3: huNRG1(S177-F229)(NRGE1D) (E47V_D48T_F49R_M50L) 6xHis (ligand)
chain: B1 chain with K9S, F21Y, I23V, P26S, N28I, E47V, D48T, F49R, M50L
B4: huNRG1(S177-F229)(NRGE1C) (E47K_D48T_F49S_M50L) 6xHis (ligand)
chain: B1 chain with E47K, D48T, F49S, M50L
B5: huNRG1(S177-F229)(NRGE1D) 6xHis (ligand)
chain: B1 chain with K9S, F21Y, I23V, P26S, N28I
B6: huNRG1(S177-F229)(NRGE1C) (E47A_D48P_F49H_M50I) 6xHis (ligand)
chain: B1 chain with E47A, D48P, F49H, M50I
B7: huNRG1(S177-F229)(NRGE1C) (E47S_D48T_F49R_M50V) 6xHis (ligand)
chain: B1 chain with E47S, D48T, F49R, M50V
B8: huNRG1(S177-F229)(NRGE1D) (E47S_D48S_F49E_M50L) 6xHis (ligand)
chain: B1 chain with K9S, F21Y, I23V, P26S, N28I, E47S, D48S, F49E, M50L
B9: huNRG1(S177-F229)(NRGE1D) (E47K_D48L_F49D_M50I) 6xHis (ligand)
chain: B1 chain with K9S, F21Y, I23V, P26S, N28I, E47K, D48L, F49D, M50I
B10: huNRG1(S177-F229)(NRGE1D) (E47T_D48S_F49L_M50L) 6xHis (ligand)
chain: B1 chain with K9S, F21Y, I23V, P26S, N28I, E47T, D48S, F49L, M50L
B11: huNRG1(S177-F229)(NRGE1C) (D48T_F49Q_M50I) 6xHis (ligand)
chain: B1 chain with D48T, F49Q, M50I
B12: huNRG1(S177-Q237)(NRGE1K)::GG::huFcSEFL2 (Pb) (Fc fusion)
chain: SHLVKCAEKHKSFCVNGGECFMIEGPSNPSRYLCKCPNEFTGDRCQDDFMASFYKAEELYQGGDKTHTCPPCPAPELLGGPSVFLFPPKPKDTLMISRTPEVTCVVVDVSHEDPEVKFNWYVDGVEVHNAKTKPCEEQYGSTYRCVSVLTVLHQDWLNGKEYKCKVSNKALPAPIEKTISKAKGQPREPQVYTLPPSREEMTKNQVSLTCLVKGFYPSDIAVEWESNGQPENNYKTTPPVLDSDGSFFLYSKLTVDKSRWQQGNVFSCSVMHEALHNHYTQKSLSLSPGK
B13: huNRG1(S177-Q237)(1D10)::GG::huFcSEFL2 (Pb) (Fc fusion)
chain: B12 chain with K9R, H10D, S12T, F21Y, G25D, P26L, N28I, D47K
B14: huNRG1(S177-Q237)(NRGE1O)::GG::huFcSEFL2 (Pb) (Fc fusion)
chain: B12 chain with A7G, F21Y, I23V, P26S, N28I, D48F
B15: huNRG1(S177-Q237)(2E3)::GG::huFcSEFL2 (Pb) (Fc fusion)
chain: B12 chain with A7G, H10E, F21Y, P26L, N28I, Y32F, D48V
B16: huNRG1(S177-Q237)(1B9)::GG::huFcSEFL2 (Pb) (Fc fusion)
chain: B12 chain with I23V, G25D, P26L, N28I, D48V
B17: huNRG1(S177-Q237)(1A12)::GG::huFcSEFL2 (Pb) (Fc fusion)
chain: B12 chain with F21Y, M22V, I23V, G25R, N28I, D47K, D48F
B18: huNRG1(S177-Q237)(NRGE1P)::GG::huFcSEFL2 (Pb) (Fc fusion)
chain: B12 chain with K9S, D48F
B19: huNRG1(S177-Q237)(1D3)::GG::huFcSEFL2 (Pb) (Fc fusion)
chain: B12 chain with A7G, K9N, H10D, M22V, G25D, N28I, D47N, M50L
B20: huNRG1(S177-Q237)(1C11)::GG::huFcSEFL2 (Pb) (Fc fusion)
chain: B12 chain with A7G, H10E, S12T, F21Y, I23V, G25R, N28I, Y32F, D47K, D48F
B21: huNRG1(S177-Q237)(NRGE1N)::GG::huFcSEFL2 (Pb) (Fc fusion)
chain: B12 chain with A7G, K9N, H10D, F21Y, I23V, P26S, N28I, D48F
B22: huNRG1(S177-Q237)(1B4)::GG::huFcSEFL2 (Pb) (Fc fusion)
chain: B12 chain with A7G, K9R, H10D, S12T, G25D, P26S, D47K
B23: huNRG1(S177-Q237)(NRGE1L)::GG::huFcSEFL2 (Pb) (Fc fusion)
chain: B12 chain with A7G, K9S, F21Y, I23V, P26S, N28I
B24: huNRG1(S177-Q237)(1A7)::GG::huFcSEFL2 (Pb) (Fc fusion)
chain: B12 chain with K9R, H10D, F21Y, M22V, G25H, P26L, Y32F, D47K
B25: huNRG1(S177-Q237)(NRGE1M)::GG::huFcSEFL2 (Pb) (Fc fusion)
chain: B12 chain with A7G, K9N, H10D, D48F
B26: huNRG1(S177-F229) 6xHis (ligand)
chain: SHLVKCAEKEKTFCVNGGECFMVKDLSNPSRYLCKCPNEFTGDRCQNYVMASFGGGGEGGGGAGGGGHHHHHH
B27: huNRG1(S177-F229)(NRGE1D)::1KmodT482V, M493L)::huFcSEFL2 (Pb) (Fc fusion)
chain: SHLVKCGESHKSFCVNGGECYMVEGSSIPSRYLCKCPNEFTGDRCQEDFMASFGSGSATGGSGSVASSGSGSATHLDKTHTCPPCPAPELLGGPSVFLFPPKPKDTLMISRTPEVTCVVVDVSHEDPEVKFNWYVDGVEVHNAKTKPCEEQYGSTYRCVSVLTVLHQDWLNGKEYKCKVSNKALPAPIEKTISKAKGQPREPQVYTLPPSREEMTKNQVSLTCLVKGFYPSDIAVEWESNGQPENNYKTTPPVLDSDGSFFLYSKLTVDKSRWQQGNVFSCSVMHEALHNHYTQKSLSLSPGK
B28: huNRG1(S177-Q237)(1A1)::GG::huFcSEFL2 (Pb) (Fc fusion)
chain: SHLVKCGESEKSFCVNGGECYVIEDSSIPSRFLCKCPNEFTGDRCQNVFLASFYKAEELYQGGDKTHTCPPCPAPELLGGPSVFLFPPKPKDTLMISRTPEVTCVVVDVSHEDPEVKFNWYVDGVEVHNAKTKPCEEQYGSTYRCVSVLTVLHQDWLNGKEYKCKVSNKALPAPIEKTISKAKGQPREPQVYTLPPSREEMTKNQVSLTCLVKGFYPSDIAVEWESNGQPENNYKTTPPVLDSDGSFFLYSKLTVDKSRWQQGNVFSCSVMHEALHNHYTQKSLSLSPGK

molecular target: ErbB4 on neonatal rat cardiomyocytes (rat) (UniProt Q62956); assay: cell-based or functional assay
Sequence (Q62956 26-1308): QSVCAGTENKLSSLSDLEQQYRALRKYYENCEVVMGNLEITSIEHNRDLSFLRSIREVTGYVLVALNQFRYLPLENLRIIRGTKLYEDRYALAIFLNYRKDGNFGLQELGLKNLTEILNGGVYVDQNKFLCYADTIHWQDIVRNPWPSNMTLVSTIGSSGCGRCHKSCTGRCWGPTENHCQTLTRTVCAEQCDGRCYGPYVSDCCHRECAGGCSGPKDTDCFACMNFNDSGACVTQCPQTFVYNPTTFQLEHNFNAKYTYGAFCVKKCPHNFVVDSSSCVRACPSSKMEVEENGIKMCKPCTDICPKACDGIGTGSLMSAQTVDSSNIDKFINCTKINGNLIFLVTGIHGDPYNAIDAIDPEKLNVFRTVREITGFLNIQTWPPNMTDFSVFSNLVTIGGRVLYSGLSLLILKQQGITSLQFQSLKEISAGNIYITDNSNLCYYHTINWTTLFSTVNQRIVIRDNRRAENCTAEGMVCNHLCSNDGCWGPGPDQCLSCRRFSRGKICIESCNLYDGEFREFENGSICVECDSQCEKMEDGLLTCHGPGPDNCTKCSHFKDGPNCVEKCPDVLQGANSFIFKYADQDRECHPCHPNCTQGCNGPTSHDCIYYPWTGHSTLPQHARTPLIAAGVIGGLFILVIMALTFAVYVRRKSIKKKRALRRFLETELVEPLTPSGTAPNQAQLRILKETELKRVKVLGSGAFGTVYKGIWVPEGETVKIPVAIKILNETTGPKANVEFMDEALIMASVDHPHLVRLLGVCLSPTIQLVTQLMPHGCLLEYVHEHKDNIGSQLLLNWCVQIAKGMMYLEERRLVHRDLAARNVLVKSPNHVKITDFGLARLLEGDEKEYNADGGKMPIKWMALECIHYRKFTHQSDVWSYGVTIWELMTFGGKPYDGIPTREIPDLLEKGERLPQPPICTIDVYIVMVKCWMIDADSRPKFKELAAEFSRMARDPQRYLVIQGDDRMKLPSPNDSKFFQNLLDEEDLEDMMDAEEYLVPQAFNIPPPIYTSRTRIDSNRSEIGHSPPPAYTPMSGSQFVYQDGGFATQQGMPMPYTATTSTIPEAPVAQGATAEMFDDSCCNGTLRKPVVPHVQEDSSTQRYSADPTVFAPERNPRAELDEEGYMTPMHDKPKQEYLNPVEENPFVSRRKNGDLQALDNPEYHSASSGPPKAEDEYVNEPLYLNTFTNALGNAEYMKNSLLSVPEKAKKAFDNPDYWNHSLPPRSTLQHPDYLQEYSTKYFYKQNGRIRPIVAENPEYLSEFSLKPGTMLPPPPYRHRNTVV

Row | Binder | CM % Agonism AVG | Cardiomyocyte (CM) (ErbB4) Avg EC50 | Selectivity SC/CM
1 | B1 | 106% | 1.44 nM | > 10000
2 | B2 | 85.9% | 0.695 nM | > 10000
3 | B3 | 98% | 0.224 nM | > 10000
4 | B4 | 91.8% | 0.825 nM | > 10000
5 | B5 | 90.7% | 0.39 nM | > 10000
6 | B6 | 96.5% | 1.1 nM | > 10000
7 | B7 | 87.5% | 0.58 nM | > 10000
8 | B8 | 96% | 0.557 nM | > 10000
9 | B9 | 91.7% | 0.311 nM | 55.4
10 | B10 | 99.8% | 0.33 nM | > 10000
11 | B11 | 106% | 0.712 nM | > 10000
12 | B12 | 66% | 7.54 nM | 1320
13 | B13 |  | 0.741 nM | > 4000
14 | B14 | 27% | 1.04 nM | 526
15 | B15 | < 50% | 0.658 nM | 1520
16 | B16 | < 50% | 1.92 nM | 520
17 | B17 |  | 0.722 nM | 66
18 | B18 | 28% | 2.22 nM | 229
19 | B19 | 78% | 1.62 nM and 0.772 nM | > 10000
20 | B20 |  | 1.1 nM | 79
21 | B21 | 26% | 1.73 nM | 435
22 | B22 |  | 0.996 nM | > 10000
23 | B23 | 74% | 2.29 nM | > 4370
24 | B24 |  | 0.619 nM | 1620
25 | B25 | 30% | 25.6 nM | 39
26 | B26 | 97.5% | 0.587 nM | 6.17
27 | B27 | 83.4% | 0.34 nM | > 10000
28 | B28 |  | 0.133 nM | 69

molecular target: ErbB3 on rat Schwann cells (rat) (UniProt Q62799); assay: cell-based or functional assay
Sequence (Q62799 20-1339): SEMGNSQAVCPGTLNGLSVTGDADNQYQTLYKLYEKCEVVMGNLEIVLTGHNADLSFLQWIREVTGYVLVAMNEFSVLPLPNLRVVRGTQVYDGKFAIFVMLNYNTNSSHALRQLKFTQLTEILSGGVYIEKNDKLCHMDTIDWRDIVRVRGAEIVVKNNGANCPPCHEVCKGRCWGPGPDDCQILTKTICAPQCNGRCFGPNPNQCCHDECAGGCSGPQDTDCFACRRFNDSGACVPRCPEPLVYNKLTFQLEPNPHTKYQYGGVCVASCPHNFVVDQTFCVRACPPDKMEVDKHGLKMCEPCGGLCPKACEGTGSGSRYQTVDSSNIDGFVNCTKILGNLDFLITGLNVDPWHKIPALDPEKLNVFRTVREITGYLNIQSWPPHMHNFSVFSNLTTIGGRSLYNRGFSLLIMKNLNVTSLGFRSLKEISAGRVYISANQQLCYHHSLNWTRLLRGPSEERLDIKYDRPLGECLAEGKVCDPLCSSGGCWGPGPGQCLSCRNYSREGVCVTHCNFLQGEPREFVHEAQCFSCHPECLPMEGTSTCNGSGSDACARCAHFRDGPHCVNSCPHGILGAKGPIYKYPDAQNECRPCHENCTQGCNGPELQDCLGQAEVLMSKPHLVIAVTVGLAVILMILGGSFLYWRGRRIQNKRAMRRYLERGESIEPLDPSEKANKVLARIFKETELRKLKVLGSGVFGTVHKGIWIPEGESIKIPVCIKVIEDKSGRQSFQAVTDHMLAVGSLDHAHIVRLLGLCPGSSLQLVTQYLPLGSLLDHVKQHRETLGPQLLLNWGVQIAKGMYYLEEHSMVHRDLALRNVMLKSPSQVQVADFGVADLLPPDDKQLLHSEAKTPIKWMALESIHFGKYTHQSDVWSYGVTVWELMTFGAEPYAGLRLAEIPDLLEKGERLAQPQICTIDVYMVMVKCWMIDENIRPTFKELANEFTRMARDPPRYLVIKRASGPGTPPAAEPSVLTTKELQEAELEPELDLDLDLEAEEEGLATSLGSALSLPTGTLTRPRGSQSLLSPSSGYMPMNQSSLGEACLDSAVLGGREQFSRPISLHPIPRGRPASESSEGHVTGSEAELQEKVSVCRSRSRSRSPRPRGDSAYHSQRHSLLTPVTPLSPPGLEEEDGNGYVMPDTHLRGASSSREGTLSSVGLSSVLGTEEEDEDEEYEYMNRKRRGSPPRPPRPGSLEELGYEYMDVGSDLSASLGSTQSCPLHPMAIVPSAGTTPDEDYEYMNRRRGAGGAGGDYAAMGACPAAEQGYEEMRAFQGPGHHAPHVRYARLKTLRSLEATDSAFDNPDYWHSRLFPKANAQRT

Row | Binder | Schwann cells (SC) (ErbB3) Avg EC50
29 | B1 | 10000 nM
30 | B2 | 10000 nM
31 | B3 | 10000 nM
32 | B4 | 10000 nM
33 | B5 | 10000 nM
34 | B6 | 10000 nM
35 | B7 | 10000 nM
36 | B8 | 10000 nM
37 | B9 | 17.2 nM
38 | B10 | 10000 nM
39 | B11 | 10000 nM
40 | B12 | > 10000 nM
41 | B13 | > 3000 nM
42 | B14 | 546 nM
43 | B15 | 1000 nM
44 | B16 | 1000 nM
45 | B17 | 47.9 nM
46 | B18 | 510 nM
47 | B19 | > 10000 nM and 10000 nM
48 | B20 | 87 nM
49 | B21 | 751 nM
50 | B22 | 10000 nM
51 | B23 | > 10000 nM
52 | B24 | 1000 nM
53 | B25 | 1010 nM
54 | B26 | 3.62 nM
55 | B27 | > 10000 nM
56 | B28 | 9.11 nM

Reference: patent US20220402985A1
